No end group written: not given here.
What was measured:
[1] = target: T1, LGR7 (RXFP1) (Homo sapiens, UniProt Q9HBX9); experiment: pCRE-β-gal reporter assay in Forskolin-treated CHO-K1 cells transiently transfected with LGR7; type: cell-based; parameters: expressed in transfected cells; host or cells: CHO-K1 (transient); settings: 5 uM Forskolin, FIG. 7A-B
T1 sequence (Q9HBX9 1-757): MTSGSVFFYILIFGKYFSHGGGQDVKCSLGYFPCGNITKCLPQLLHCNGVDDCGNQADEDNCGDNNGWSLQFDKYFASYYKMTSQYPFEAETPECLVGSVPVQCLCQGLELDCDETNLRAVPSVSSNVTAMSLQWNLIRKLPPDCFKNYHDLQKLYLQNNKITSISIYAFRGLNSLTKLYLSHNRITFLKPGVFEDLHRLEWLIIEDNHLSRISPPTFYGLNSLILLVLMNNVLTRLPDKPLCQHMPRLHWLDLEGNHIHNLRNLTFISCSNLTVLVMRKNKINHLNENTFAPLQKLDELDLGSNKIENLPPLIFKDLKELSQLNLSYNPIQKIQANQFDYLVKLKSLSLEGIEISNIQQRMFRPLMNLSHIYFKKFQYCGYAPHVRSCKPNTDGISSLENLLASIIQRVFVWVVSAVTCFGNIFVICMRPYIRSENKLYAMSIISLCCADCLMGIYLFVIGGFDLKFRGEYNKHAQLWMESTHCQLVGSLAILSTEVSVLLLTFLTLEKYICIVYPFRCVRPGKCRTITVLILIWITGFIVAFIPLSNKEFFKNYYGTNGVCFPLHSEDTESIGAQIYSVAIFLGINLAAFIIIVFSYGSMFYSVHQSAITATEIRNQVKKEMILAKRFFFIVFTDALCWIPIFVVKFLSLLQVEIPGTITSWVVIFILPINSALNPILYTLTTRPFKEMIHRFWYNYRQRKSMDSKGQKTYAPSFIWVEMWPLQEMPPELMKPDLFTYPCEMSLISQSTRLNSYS
Description: The ability of P74C13V (P74) (SEQ ID NO: 10) and P59C13V (P59) and P59C13V-Amide (P59-Amide) (SEQ ID NO: 6 and 5 respectively) to activate LGR7 (RXFP1) and LGR8 (RXFP2) was further tested by testing the ability of these peptides to influence cAMP activity induced by 5 μM Forskolin in CHO-K1 cells transiently transfected with LGR7/pCRE-β-gal or LGR8/pCRE-β-gal as compared to H2 relaxin and INSL3 respectively.
LGR7 transfected CHO-K1 cells were treated with 5 uM of Forskolin to stimulate cAMP. The cells were then challenged with increasing doses of H2 Relaxin (as positive control), P74C13V (P74) (SEQ ID NO: 10), P59C13V with (P59-Amide) and without (P59) amide and P59S-Amide (P59S) (SEQ ID NO: 5, 6 and 1, respectively). […] The results are presented as a percentage of Forskolin activity at increasing concentrations of each peptide (represented in log [M]). The baseline for the experiment was the activity of Forskolin alone (100%). Each point represents three unrelated repeats for each experiment together with their standard error bars.

[2] = target: LGR8 (RXFP2) (Homo sapiens, UniProt Q8WXD0); experiment: pCRE-β-gal reporter assay in HEK-293T cells expressing LGR8; type: cell-based; parameters: expressed in transfected cells; settings: LGR8/pCRE-β-gal HEK-293T; for CRE activation pattern: 0.01 nM-1 μM, FIG. 6A-B
Description: In order to further test the activity of P59C13V (P59) (SEQ ID NO: 6), P59S-Amide (P59S) (SEQ ID NO: 1), P59C13V-Amide (P59 Amide) (SEQ ID NO: 5) and P74C13V (P74) (SEQ ID NO: 10), the following assay was performed. The assay was done to assess the ability of P59C13V (P59) (SEQ ID NO: 6), P59S-Amide (P59S) (SEQ ID NO: 1), P59C13V-Amide (P59Amide) (SEQ ID NO: 5) and P74C13V (P74) (SEQ ID NO: 10) peptides to replace H2 Relaxin or INSL3 activity in stable HEK-293T cell lines expressing the LGR7 (RXFP1) or the LGR8 (RXFP2) receptors, respectively, by assessment of the ability of these peptides to increase cAMP activity in cell lines expressing LGR7 (RXFP1) or LGR8 (RXFP2) respectively, together with pCRE-β-gal. The pCRE-β-gal assay is a standard and well established assay at the Howard Florey Institute (Melbourne, Australia) (Halls M L, Bathgate R A, Summers R J.—Comparison of signaling pathways activated by the relaxin family peptide receptors, RXFP1 and RXFP2, using reporter genes. J Pharmacol Exp Ther. 2007 January; 320(1):281-90.)
The ability of P59C13V (P59) (SEQ ID NO: 6), P59S-Amide (P59S) (SEQ ID NO: 1), P59C13V-Amide (P59Amide) (SEQ ID NO: 5) and P74C13V (P74) (SEQ ID NO: 10) to influence cAMP activity in HEK-293T LGR7/pCRE-β-gal stable or LGR8/pCRE-β-gal transfected cells was tested in parallel to H2 relaxin and INSL3 respectively, according to the protocol described in Halls M L, et al., J Pharmacol Exp Ther. 2007 January; 320(1):281-90.
The experiment was repeated at least three times. The following concentrations of each peptide were tested: 0.01 nM, 0.1 nM, 1 nM, 10 nM, 100 nM, 1 μM.
The results are presented as a percentage of INSL3 activity in LGR8/pCRE-β-gal transfected HEK-293T cells as a function of the concentration (Represented in Log [M]).

Sequence of LGR8 (RXFP2) (Q8WXD0 whole entry): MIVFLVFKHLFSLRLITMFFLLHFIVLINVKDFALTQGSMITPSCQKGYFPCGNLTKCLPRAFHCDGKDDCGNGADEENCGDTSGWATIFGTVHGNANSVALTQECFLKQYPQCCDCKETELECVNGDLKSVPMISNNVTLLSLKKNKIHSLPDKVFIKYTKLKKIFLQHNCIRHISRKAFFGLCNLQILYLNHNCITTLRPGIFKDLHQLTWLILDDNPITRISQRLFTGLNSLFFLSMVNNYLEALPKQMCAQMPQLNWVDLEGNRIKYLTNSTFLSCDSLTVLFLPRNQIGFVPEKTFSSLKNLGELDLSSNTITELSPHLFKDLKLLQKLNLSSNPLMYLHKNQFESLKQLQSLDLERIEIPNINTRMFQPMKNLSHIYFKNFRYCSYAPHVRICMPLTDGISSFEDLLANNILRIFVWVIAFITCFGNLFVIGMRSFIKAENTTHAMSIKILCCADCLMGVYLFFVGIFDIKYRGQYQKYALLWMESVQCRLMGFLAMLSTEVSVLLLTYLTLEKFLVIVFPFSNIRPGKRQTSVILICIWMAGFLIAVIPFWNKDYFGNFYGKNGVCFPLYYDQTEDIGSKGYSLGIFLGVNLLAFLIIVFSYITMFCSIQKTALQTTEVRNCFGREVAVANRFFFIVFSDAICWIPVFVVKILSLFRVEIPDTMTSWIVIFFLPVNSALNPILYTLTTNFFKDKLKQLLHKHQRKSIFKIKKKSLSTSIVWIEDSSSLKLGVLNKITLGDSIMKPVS

| Substance | CRE activation pattern relative to Forskolin [1] | CRE activation relative to INSL3 activity ([2]; FIG. 6B) | CRE activation pattern [2] |
| --- | --- | --- | --- |
| AYAAFSV-Amide (AYAAFSV-NH2) [Peptide P59-S-Amide] |  |  | less pronounced |
| H2 Relaxin: H2 Relaxin (ACS), positive control, known ligand of LGR7 (RXFP1) [reference compound] | increased activation at higher concentrations |  |  |
| GQKGQVGPPGAAVRRAYAAFSV-Amide (GQKGQVGPPGAAVRRAYAAFSV-NH2) [P59C13V-Amide] | slight activation pattern |  | very weak effect |

Other lines, results leading:

| CRE activation pattern relative to Forskolin [1] | CRE activation relative to INSL3 activity ([2]; FIG. 6B) | CRE activation pattern [2] | Substance |
| --- | --- | --- | --- |
| dual activation pattern effect | ~25 % of INSL3 |  | GQKGQVGPPGAAVRRAYAAFSV [Peptide P59C13V] |
| bell-shaped activation pattern |  | bell shaped response | GQKGQVGPPGAAVRRAYAAFSVGRRAYAAFSV-OH [Peptide P74C13V] |
